Common to all, as to assay: fluorescence polarisation; 0.5 nM FITC-labeled peptide, chromodomain serially diluted (wild types 200-0.2 µM; Cbx7.V1 and Cbx.VDs 50 µM-50 nM); 25 °C, 30 min; 25 mM HEPES pH 7.5, 150 mM NaCl, 1 mM DTT, 0.01% TritonX-100; one-site total binding model; values of single replicates
Common to all, as to conditions: both partners purified

The target in one test is T1, Cbx7 chromodomain K33E (human, UniProt O95931 7-66, K33E).
T1 construct: chromodomain of human Cbx7; residues numbered on full-length Cbx7; also called Cbx7 K33E; source: E. coli BL21(DE3), purified (Ni-NTA), tags removed with TEV protease
T1 sequence: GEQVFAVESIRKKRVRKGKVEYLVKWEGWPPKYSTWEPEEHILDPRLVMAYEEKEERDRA

The target of test [1] is T2, Cbx7.V1 chromodomain variant (tags removed, used for FP) (human, UniProt O95931 7-66, E8D (printed as the back-mutation D8E) | Q9D | V10I (printed as the …)).
T2 construct: chromodomain of human Cbx7 with the six substitutions of the phage-selected variant V1; residues numbered on full-length Cbx7; source: E. coli BL21(DE3), purified (Ni-NTA), tags removed with TEV protease
T2 sequence: T1 sequence with E2D, Q3D, V4I, P31L, K32E

The target in test [2] is T3, Cbx7 chromodomain with the double substitution Q9D/K33E (human, UniProt O95931 7-66, Q9D | K33E).
T3 construct: chromodomain of human Cbx7; residues numbered on full-length Cbx7; also called Cbx7.VD; source: E. coli BL21(DE3), purified (Ni-NTA), tags removed with TEV protease
T3 sequence: T1 sequence with Q3D

Another test addresses T4, Cbx7 chromodomain Q9D (human, UniProt O95931 7-66, Q9D).
T4 construct: chromodomain of human Cbx7; residues numbered on full-length Cbx7; also called Cbx7 Q9D; source: E. coli BL21(DE3), purified (Ni-NTA), tags removed with TEV protease
T4 sequence: T1 sequence with Q3D, E27K

Test [3] concerns the target T5, wild-type Cbx7 chromodomain (human, UniProt O95931 7-66).
T5 construct: chromodomain of human Cbx7; also called Cbx7.wt; source: E. coli BL21(DE3), purified (Ni-NTA), tags removed with TEV protease
T5 sequence: T1 sequence with E27K

For test [4], the target named is T3, Cbx7 chromodomain with the double …. This is another data set of the same source.
Test [5] deals with T5, wild-type Cbx7 chromodomain. The source holds these as a separate data set.
Test [6] has as its target T6, wild-type Cbx2 chromodomain (human, UniProt Q14781 9-62).
T6 construct: chromodomain of human Cbx2; also called Cbx2.wt; source: E. coli BL21(DE3), purified (Ni-NTA), tags removed with TEV protease
T6 sequence: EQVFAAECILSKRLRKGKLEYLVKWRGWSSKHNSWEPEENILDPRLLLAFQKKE

For test [7], the target named is T7, wild-type Cbx1 chromodomain (human, UniProt P83916 20-73).
T7 construct: chromodomain of human Cbx1; also called Cbx1.wt; source: E. coli BL21(DE3), purified (Ni-NTA), tags removed with TEV protease
T7 sequence (P83916 20-73, looked up): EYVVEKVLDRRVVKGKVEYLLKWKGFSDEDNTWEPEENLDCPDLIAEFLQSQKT

Test [8] has as its target T8, wild-type Cbx5 chromodomain (human, UniProt P45973 18-75).
T8 construct: chromodomain of human Cbx5; also called Cbx5.wt; source: E. coli BL21(DE3), purified (Ni-NTA), tags removed with TEV protease

Residue numbers refer to the chain shown, from its start. Several values for one entry are separate records, joined by “and”; a condition that tells them apart may be missing. Identical values can stand only once.

T8 sequence (P45973 18-75, looked up): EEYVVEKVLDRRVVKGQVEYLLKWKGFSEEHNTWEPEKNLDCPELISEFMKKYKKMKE

As usually defined, the Kd is a measure of binding affinity in units of concentration. A low value points to higher affinity. KQLATKAARKSAPATGGVK (trimethyl-lysine at K27; fluorescein isothiocyanate (FITC) at the N-terminus) [H3K27me3 peptide, FITC-labeled]: the dissociation constant Kd was 17.5 µM and 21 µM and 19 µM in the test with Cbx7 chromodomain K33E; 4.5 µM and 3.9 µM and 3.4 µM in test [1]; 5.1 µM and 4.7 µM and 5.2 µM in test [2]; 115 µM and 101 µM and 84 µM in the test with Cbx7 chromodomain Q9D; 115 µM and 79 µM and 143 µM in test [3]; 4.8 µM and 5.2 µM in [4]. Also, the Kd in [5] was 138 µM and 84 µM and 109 µM; in [6], 117 µM and 101 µM and 84 µM.

With ARTKQTARKSTGGKAPR (trimethyl-lysine at K9; fluorescein isothiocyanate (FITC) at the N-terminus) [H3K9me3 peptide, FITC-labeled], the Kd in the test with Cbx7 chromodomain K33E was 24 µM and 18 µM and 19 µM; in test [1], 7.5 µM and 5.7 µM and 7.8 µM; in test [2], 8.4 µM and 7.4 µM and 8.2 µM; with Cbx7 chromodomain Q9D, 11 µM and 9.7 µM and 9.4 µM; in test [3] it was 41 µM and 27 µM and 23 µM; in test [7] it was 0.453 µM and 0.543 µM and 0.529 µM. The Kd in test [4] is 8.6 µM and 7.5 µM; in test [8], 5.6 µM and 5 µM and 4.8 µM; in test [5] it was 33.5 µM and 37 µM and 23 µM.

For the origin of these results see paper PMC9666628 (Nature Communications, 2022).
